{"source": "the supplement of paper PMC9112550", "about": "“Optimization of the antimicrobial peptide Bac7 by deep mutational scanning” (BMC Biology, 2022);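 note: peptides expressed intracellularly from a pBAD plasmid library in pooled LB shake-flask culture, induced with 0.3% L-arabinose, DNA abundance read by NGS, three biological replicates, DESeq2 with apeglm shrinkage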", "data": [{"tested_on": "Escherichia coli TOP10", "assay": "shrunken log2 fold change of peptide-encoding DNA abundance (4.5 h post-induction vs induction); higher = less antimicrobial activity (less host growth inhibition)", "settings": "time post-induction: 4.5 h; library: site-saturation at positions 5, 18, 19, 20", "values": [{"sequence": "RRIRVRPPRLPRPRPRPPMCPRP", "shrunken log2 fold change": 0.0598}, {"sequence": "RRIRVRPPRLPRPRPRPSAEPRP", "shrunken log2 fold change": 0.299}, {"sequence": "RRIRDRPPRLPRPRPRPKLKPRP", "shrunken log2 fold change": -0.0223}, {"sequence": "RRIRFRPPRLPRPRPRPQWLPRP", "shrunken log2 fold change": -0.0613}, {"sequence": "RRIRYRPPRLPRPRPRPDEHPRP", "shrunken log2 fold change": -0.0204}, {"sequence": "RRIRCRPPRLPRPRPRPSVDPRP", "shrunken log2 fold change": -0.139}, {"sequence": "RRIRIRPPRLPRPRPRPYSVPRP", "shrunken log2 fold change": -0.07}, {"sequence": "RRIRIRPPRLPRPRPRPAAKPRP", "shrunken log2 fold change": 0.463}, {"sequence": "RRIRIRPPRLPRPRPRPMDLPRP", "shrunken log2 fold change": -1.16}, {"sequence": "RRIRWRPPRLPRPRPRPHSKPRP", "shrunken log2 fold change": 1.84}, {"sequence": "RRIRYRPPRLPRPRPRPISDPRP", "shrunken log2 fold change": -0.237}, {"sequence": "RRIRDRPPRLPRPRPRPTTWPRP", "shrunken log2 fold change": 0.467}, {"sequence": "RRIRSRPPRLPRPRPRPVQDPRP", "shrunken log2 fold change": 0.339}, {"sequence": "RRIRDRPPRLPRPRPRPGGQPRP", "shrunken log2 fold change": 0.211}, {"sequence": "RRIRERPPRLPRPRPRPRWYPRP", "shrunken log2 fold change": -0.464}, {"sequence": "RRIRSRPPRLPRPRPRPDHYPRP", "shrunken log2 fold change": -0.341}, {"sequence": "RRIRNRPPRLPRPRPRPEMGPRP", "shrunken log2 fold change": -0.0261}, {"sequence": "RRIRIRPPRLPRPRPRPCGTPRP", "shrunken log2 fold change": -0.00435}, {"sequence": "RRIRLRPPRLPRPRPRPFNCPRP", "shrunken log2 fold change": 0.0515}, {"sequence": "RRIRGRPPRLPRPRPRPEYDPRP", "shrunken log2 fold change": 0.0795}, {"sequence": "RRIRERPPRLPRPRPRPFQSPRP", "shrunken log2 fold change": -0.00776}, {"sequence": "RRIRLRPPRLPRPRPRPDEVPRP", "shrunken log2 fold change": 0.256}, {"sequence": "RRIRWRPPRLPRPRPRPPFCPRP", "shrunken log2 fold change": 0.24}, {"sequence": "RRIRERPPRLPRPRPRPAMEPRP", "shrunken log2 fold change": -0.0417}, {"sequence": "RRIRDRPPRLPRPRPRPLATPRP", "shrunken log2 fold change": 1.1}, {"sequence": "RRIRVRPPRLPRPRPRPCNPPRP", "shrunken log2 fold change": -0.182}, {"sequence": "RRIRQRPPRLPRPRPRPVTRPRP", "shrunken log2 fold change": 0.0193}, {"sequence": "RRIRPRPPRLPRPRPRPFPCPRP", "shrunken log2 fold change": -0.0101}, {"sequence": "RRIRWRPPRLPRPRPRPKPYPRP", "shrunken log2 fold change": 3.05}, {"sequence": "RRIRIRPPRLPRPRPRPPGGPRP", "shrunken log2 fold change": 0.512}, {"sequence": "RRIRCRPPRLPRPRPRPDFEPRP", "shrunken log2 fold change": -0.0276}, {"sequence": "RRIRIRPPRLPRPRPRPWWNPRP", "shrunken log2 fold change": -0.0623}, {"sequence": "RRIRGRPPRLPRPRPRPLSDPRP", "shrunken log2 fold change": 0.365}, {"sequence": "RRIRHRPPRLPRPRPRPQQVPRP", "shrunken log2 fold change": -0.0214}, {"sequence": "RRIRVRPPRLPRPRPRPKLQPRP", "shrunken log2 fold change": 0.32}, {"sequence": "RRIRARPPRLPRPRPRPMSMPRP", "shrunken log2 fold change": 0.0853}, {"sequence": "RRIRMRPPRLPRPRPRPHDHPRP", "shrunken log2 fold change": -0.0397}, {"sequence": "RRIRSRPPRLPRPRPRPAGCPRP", "shrunken log2 fold change": 0.459}, {"sequence": "RRIRGRPPRLPRPRPRPRPCPRP", "shrunken log2 fold change": 0.676}, {"sequence": "RRIRARPPRLPRPRPRPDNHPRP", "shrunken log2 fold change": -0.0167}, {"sequence": "RRIRCRPPRLPRPRPRPLSMPRP", "shrunken log2 fold change": -0.207}, {"sequence": "RRIRNRPPRLPRPRPRPLHAPRP", "shrunken log2 fold change": -0.0128}, {"sequence": "RRIRARPPRLPRPRPRPIESPRP", "shrunken log2 fold change": 0.0614}, {"sequence": "RRIRNRPPRLPRPRPRPMVFPRP", "shrunken log2 fold change": -0.000155}, {"sequence": "RRIRRRPPRLPRPRPRPAPHPRP", "shrunken log2 fold change": 0.858}, {"sequence": "RRIRDRPPRLPRPRPRPGTNPRP", "shrunken log2 fold change": -0.344}, {"sequence": "RRIRWRPPRLPRPRPRPHFQPRP", "shrunken log2 fold change": -0.183}, {"sequence": "RRIRERPPRLPRPRPRPFGYPRP", "shrunken log2 fold change": -0.0787}, {"sequence": "RRIRNRPPRLPRPRPRPNSQPRP", "shrunken log2 fold change": -0.265}, {"sequence": "RRIRSRPPRLPRPRPRPAADPRP", "shrunken log2 fold change": 0.252}, {"sequence": "RRIRPRPPRLPRPRPRPQVTPRP", "shrunken log2 fold change": -0.0231}, {"sequence": "RRIRPRPPRLPRPRPRPAEPPRP", "shrunken log2 fold change": -0.0331}, {"sequence": "RRIRSRPPRLPRPRPRPFHNPRP", "shrunken log2 fold change": -0.0339}, {"sequence": "RRIRIRPPRLPRPRPRPKKTPRP", "shrunken log2 fold change": -0.235}, {"sequence": "RRIRCRPPRLPRPRPRPCMNPRP", "shrunken log2 fold change": -0.627}, {"sequence": "RRIRHRPPRLPRPRPRPECVPRP", "shrunken log2 fold change": 0.321}, {"sequence": "RRIRARPPRLPRPRPRPSHKPRP", "shrunken log2 fold change": 0.0213}, {"sequence": "RRIRQRPPRLPRPRPRPGYMPRP", "shrunken log2 fold change": -0.131}, {"sequence": "RRIRHRPPRLPRPRPRPLTDPRP", "shrunken log2 fold change": -0.251}, {"sequence": "RRIRIRPPRLPRPRPRPEVEPRP", "shrunken log2 fold change": -0.0136}, {"sequence": "RRIRPRPPRLPRPRPRPNIEPRP", "shrunken log2 fold change": -0.294}, {"sequence": "RRIRIRPPRLPRPRPRPFPMPRP", "shrunken log2 fold change": -0.412}, {"sequence": "RRIRPRPPRLPRPRPRPMKKPRP", "shrunken log2 fold change": -0.0723}, {"sequence": "RRIRMRPPRLPRPRPRPNHFPRP", "shrunken log2 fold change": -0.436}, {"sequence": "RRIRPRPPRLPRPRPRPFNCPRP", "shrunken log2 fold change": -0.537}, {"sequence": "RRIRCRPPRLPRPRPRPERMPRP", "shrunken log2 fold change": -0.015}, {"sequence": "RRIRFRPPRLPRPRPRPFREPRP", "shrunken log2 fold change": -0.0914}, {"sequence": "RRIRVRPPRLPRPRPRPSRTPRP", "shrunken log2 fold change": -0.47}, {"sequence": "RRIRCRPPRLPRPRPRPVPTPRP", "shrunken log2 fold change": 0.116}, {"sequence": "RRIRPRPPRLPRPRPRPGMLPRP", "shrunken log2 fold change": -0.0338}, {"sequence": "RRIRNRPPRLPRPRPRPLVFPRP", "shrunken log2 fold change": -0.147}, {"sequence": "RRIRTRPPRLPRPRPRPSEVPRP", "shrunken log2 fold change": 0.0146}, {"sequence": "RRIRKRPPRLPRPRPRPKCRPRP", "shrunken log2 fold change": 0.175}, {"sequence": "RRIRTRPPRLPRPRPRPYHRPRP", "shrunken log2 fold change": 0.0446}, {"sequence": "RRIRWRPPRLPRPRPRPQRWPRP", "shrunken log2 fold change": 0.308}, {"sequence": "RRIRFRPPRLPRPRPRPVAPPRP", "shrunken log2 fold change": 0.243}, {"sequence": "RRIRGRPPRLPRPRPRPKCDPRP", "shrunken log2 fold change": 0.812}, {"sequence": "RRIRARPPRLPRPRPRPWTPPRP", "shrunken log2 fold change": 0.123}, {"sequence": "RRIRWRPPRLPRPRPRPTYQPRP", "shrunken log2 fold change": -0.325}, {"sequence": "RRIRLRPPRLPRPRPRPEWHPRP", "shrunken log2 fold change": 0.222}, {"sequence": "RRIRFRPPRLPRPRPRPALNPRP", "shrunken log2 fold change": 0.0855}, {"sequence": "RRIRKRPPRLPRPRPRPFKIPRP", "shrunken log2 fold change": 0.00571}, {"sequence": "RRIRQRPPRLPRPRPRPYMEPRP", "shrunken log2 fold change": -0.26}, {"sequence": "RRIRMRPPRLPRPRPRPDGFPRP", "shrunken log2 fold change": 0.0516}, {"sequence": "RRIRSRPPRLPRPRPRPNYHPRP", "shrunken log2 fold change": -0.742}, {"sequence": "RRIRMRPPRLPRPRPRPKVQPRP", "shrunken log2 fold change": 1.85}, {"sequence": "RRIRPRPPRLPRPRPRPLDVPRP", "shrunken log2 fold change": -0.146}, {"sequence": "RRIRARPPRLPRPRPRPWVQPRP", "shrunken log2 fold change": -0.0652}, {"sequence": "RRIRTRPPRLPRPRPRPDMAPRP", "shrunken log2 fold change": -0.0628}, {"sequence": "RRIRHRPPRLPRPRPRPRANPRP", "shrunken log2 fold change": 0.177}, {"sequence": "RRIRRRPPRLPRPRPRPCVNPRP", "shrunken log2 fold change": -0.0549}, {"sequence": "RRIRRRPPRLPRPRPRPYEEPRP", "shrunken log2 fold change": -0.3}, {"sequence": "RRIRDRPPRLPRPRPRPSPQPRP", "shrunken log2 fold change": 0.204}, {"sequence": "RRIRERPPRLPRPRPRPENHPRP", "shrunken log2 fold change": -0.455}, {"sequence": "RRIRMRPPRLPRPRPRPIKLPRP", "shrunken log2 fold change": 0.0649}, {"sequence": "RRIRTRPPRLPRPRPRPHMSPRP", "shrunken log2 fold change": 0.0303}, {"sequence": "RRIRPRPPRLPRPRPRPEDCPRP", "shrunken log2 fold change": -0.0873}, {"sequence": "RRIRCRPPRLPRPRPRPNLLPRP", "shrunken log2 fold change": -0.572}, {"sequence": "RRIRRRPPRLPRPRPRPAVNPRP", "shrunken log2 fold change": 0.125}, {"sequence": "RRIRRRPPRLPRPRPRPGFCPRP", "shrunken log2 fold change": 0.37}, {"sequence": "RRIRGRPPRLPRPRPRPRCYPRP", "shrunken log2 fold change": 0.555}, {"sequence": "RRIRIRPPRLPRPRPRPSETPRP", "shrunken log2 fold change": -0.297}, {"sequence": "RRIRRRPPRLPRPRPRPIVLPRP", "shrunken log2 fold change": -0.102}, {"sequence": "RRIRIRPPRLPRPRPRPWARPRP", "shrunken log2 fold change": 0.0419}, {"sequence": "RRIRERPPRLPRPRPRPRYQPRP", "shrunken log2 fold change": -0.227}, {"sequence": "RRIRSRPPRLPRPRPRPWLRPRP", "shrunken log2 fold change": -0.241}, {"sequence": "RRIRLRPPRLPRPRPRPTSAPRP", "shrunken log2 fold change": 0.659}, {"sequence": "RRIRERPPRLPRPRPRPYEAPRP", "shrunken log2 fold change": -0.59}, {"sequence": "RRIRKRPPRLPRPRPRPLKPPRP", "shrunken log2 fold change": 0.238}]}]}
